Data: article PMC2532717 (Nucleic Acids Research, 2008)

Target: the molecule itself
Experiment: cross-linking

Protein	binding result	stoichiometry N
RecA (natural protein, B. subtilis, UniProt P16971 1-348, looked up) MSDRQAALDMALKQIEKQFGKGSIMKLGEKTDTRISTVPSGSLALDTALGIGGYPRGRIIEVYGPESSGKTTVALHAIAEVQQQGGQAAFIDAEHALDPVYAQKLGVNIEELLLSQPDTGEQALEIAEALVRSGAVDIVVVDSVAALVPKAEIEGDMGDSHVGLQARLMSQALRKLSGAINKSKTIAIFINQIREKVGVMFGNPETTPGGRALKFYSSVRLEVRRAEQLKQGNDVMGNKTKIKVVKNKVAPPFRTAEVDIMYGEGISKEGEIIDLGTELDIVQKSGSWYSYEEERLGQGRENAKQFLKENKDIMLMIQEQIREHYGLDNNGVVQQQAEETQEELEFEE	binds	–
RecUK56A (enzyme, B. subtilis) MIRYPNGKTFQPKHSVSSQNSQKRAPSYSNRGMTLEDDLNETNKYYLTNQIAVIHAKPTPVQIVNVHYPKRSAAVIKEAYFKQSSTTDYNGIYKGRYIDFEAKETKNKTSFPLQNFHDHQIEHMKQVKAQDGICFVIISAFDQVYFLEADKLFYFWDRKEKNGRKSIRKDELEETAYPISLGYAPRIDYISIIEQLYFSPSSGAKG	–	2
RecUR71A (enzyme, B. subtilis) MIRYPNGKTFQPKHSVSSQNSQKRAPSYSNRGMTLEDDLNETNKYYLTNQIAVIHKKPTPVQIVNVHYPKASAAVIKEAYFKQSSTTDYNGIYKGRYIDFEAKETKNKTSFPLQNFHDHQIEHMKQVKAQDGICFVIISAFDQVYFLEADKLFYFWDRKEKNGRKSIRKDELEETAYPISLGYAPRIDYISIIEQLYFSPSSGAKG	–	2
